PMC5036048 (Scientific Reports, 2016)

Tests used:
[1] = target: T1, N43 (gp41 NHR peptide, Val539~Leu581) (HIV-1 (numbering of HIV-1 HXB2 gp160), UniProt P04578 539-581); assay: cell-based or functional assay
[2] = target: T1, N43 (gp41 NHR peptide, Val539~Leu581); assay: cell-based or functional assay; remark: listed apart in the source

T1 sequence (P04578 539-581): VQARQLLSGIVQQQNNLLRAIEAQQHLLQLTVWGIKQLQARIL

Binder: WMEWDREINNYTSLIHSLIEESQNQQIDL [CP-IDL]
- IC50 of inhibition of HIV-1 pseudovirus B1206.W6P.ENV.A1 (subtype A) [1]: 74.5 nM
- IC50 of inhibition of HIV-1 pseudovirus BG505.W6M.ENV.C2 (subtype A) [1]: 8.61 nM
- IC50 of inhibition of HIV-1 pseudovirus BJ412.W6M.ENV.S3 (subtype C) [1]: 1.21 nM
- IC50 of inhibition of HIV-1 pseudovirus MJ412.W0M.ENV.B1 (subtype C) [1]: 2.24 nM
- IC50 of inhibition of HIV-1 pseudovirus SF162.LS (subtype B, R5, Tier 1) [1]: 1.51 nM
- IC50 of inhibition of HIV-1 pseudovirus ZM109F.PB4 (subtype C, R5) [1]: 2.93 nM
- IC50 of inhibition of HIV-1 pseudovirus pCH119 env (subtype BC, R5, Tier 2) [1]: 5.79 nM
- IC50 of inhibition of infection, T20-resistant strain N42T, N43K [2]: 382 nM
- IC50 of inhibition of infection, T2635-resistant strain K154Q [2]: 9.79 nM
- IC50 of inhibition of infection, T2635-resistant strain N113E [2]: 7.99 nM
- IC50 of inhibition of infection, T2635-resistant strain N126K [2]: 46.4 nM
- IC50 of inhibition of infection, T2635-resistant strain Q66R, N126K [2]: 302 nM
- IC50 of inhibition of infection, panel of T20-resistant strains: WT [2]: 8.67 nM
- IC50 of inhibition of infection, panel of T2635-resistant strains: WT [2]: 10.8 nM
